In patent US20240309087A1 one finds EC50 data, which are given here for one substance.

Assay [1] has as its target human CD112R on CHO-CD112R cells (human) (UniProt Q6DKI7). Briefly: FACS binding to CHO-CD112R cells, MFI-APC, ambiguous fit of the negative control; unit from the axis.
Assay [2] shares this target. The experiment in a line: FACS binding to CHO-CD112R cells, MFI-APC, fit of the negative control; unit from the axis. Background: A flow cytometer gives signals particle by particle.

human CD112R on CHO-CD112R cells (human), sequence (Q6DKI7 41-326 limits assumed): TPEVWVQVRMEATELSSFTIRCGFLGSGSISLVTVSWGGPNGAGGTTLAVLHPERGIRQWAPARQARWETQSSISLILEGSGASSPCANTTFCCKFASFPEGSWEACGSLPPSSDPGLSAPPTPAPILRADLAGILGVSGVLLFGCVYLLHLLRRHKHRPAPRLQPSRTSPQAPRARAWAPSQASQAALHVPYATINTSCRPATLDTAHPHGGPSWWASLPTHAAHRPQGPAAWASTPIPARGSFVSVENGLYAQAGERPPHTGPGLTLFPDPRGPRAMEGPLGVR

For the substance anti-KLH hu-IgG4 antibody, the EC50 (in general, the concentration at which the effect is half-maximal) in assay [1] turned out to be 4050 µg/mL; in assay [2], 26.3 µg/mL.
